The record followed here is patent US20240317844A1.

The assay has as its target survivin (UniProt O15392). Nature of the assay: method not stated.

B1: mAb 2C2E7 (antibody, V domains shown)
VH: QIQLVQSGPELKKPGETVKISCKASGYTFTTYGMSWVKQAPGRGLKWMGWINPYSGVPTYAVDFKGRFAFSLETSASTAYLQINNLKNEDTATYFCARGGRRGDFGYWGQGTTLTVSS
VL: QIGLTQSPAIMSASPGEKVTMTCSASSSISYMHWYQQKPGTSPKTWIYDTSKLASGVPARFSGSGSGTSYSLTISSMEAEDAATYYCHQRSSHHTFGGGTKLEIK
With B1, the Kd worked out at 0.56 nM.
